Test results published in patent publication US6818749.
Changes are numbered by the printed parent chain.

B1: HuCC49 CDR variant L-1 (antibody, V domains shown)
VH: QVQLVQSGAEVVKPGASVKISCKASGYTFTDHAIHWVKQNPGQRLEWIGYFSPGNDDFKYNERFKGKATLTADTSASTAYVELSSLRSEDTAVYFCTRSLNMAYWGQGTLVTVSS
VL: DIVMSQSPDSLAVSLGERVTLNCKSSQSVLYSSNSKNYLAWYQQKPGQSPKLLIYWASARESGVPDRFSGSGSGTDFTLTISSVQAEDVAVYYCQQYYSYPLTFGAGTKLELK
B2: HuCC49 CDR variant L-1,2 (antibody, V domains shown)
VH: B1 VH
VL: B1 VL with A59T
B3: HuCC49 CDR variant H-2 (antibody, V domains shown)
VH: QVQLVQSGAEVVKPGASVKISCKASGYTFTDHAIHWVKQNPGQRLEWIGWINAGNGNTKYSQKFQGKATLTADTSASTAYVELSSLRSEDTAVYFCTRSLNMAYWGQGTLVTVSS
VL: B1 VL with V29L, S33G, S35Q
B4: HuCC49 variant ^97L1,2 (antibody, V domains shown)
VH: B1 VH
VL: B1 VL with A59T, T103S
B5: humanized monoclonal antibody HuCC49 (parental HuCC49) (antibody, V domains shown)
VH: B1 VH
VL: B1 VL with V29L, S33G, S35Q
B6: HuCC49 CDR variant L-2 (antibody, V domains shown)
VH: B1 VH
VL: B1 VL with V29L, S33G, S35Q, A59T
B7: HuCC49 CDR variant L-3 (antibody, V domains shown)
VH: B1 VH
VL: B1 VL with V29L, S33G, S35Q, Y100T, L102Y, T103S
B8: HuCC49 CDR variant H-1 (antibody, V domains shown)
VH: B1 VH with D31S, H32Y, I34M
VL: B1 VL with V29L, S33G, S35Q
B9: HuCC49 CDR variant H-3 (antibody, V domains shown)
VH: QVQLVQSGAEVVKPGASVKISCKASGYTFTDHAIHWVKQNPGQRLEWIGYFSPGNDDFKYNERFKGKATLTADTSASTAYVELSSLRSEDTAVYFCTRGGYYGSGSGSNYWGQGTLVTVSS
VL: B1 VL with V29L, S33G, S35Q

molecular target: TAG72 positive bovine submaxillary mucin (BSM) (bovine); test: relative affinity constant from competition RIA on BSM

Point of comparison: B1, fold less than the Ka of HuCC49 2 fold. Against it:
- B2 — the same, 2 fold
- B3 — higher, 300 fold
- B4 — not separable, 2 to 3 fold

molecular target: mouse anti-idiotypic MAb AI49-1 (γ-subset); test: competition RIA vs ^125I-murine CC49 on adsorbed AI49-1

In the case of B3, the fold more competitor for 50% inhibition than HuCC49 is reported as 4 to 15 fold.

molecular target: mouse anti-idiotypic MAb AI49-3 (β-subset); test: competition RIA vs ^125I-murine CC49 on adsorbed AI49-3

With B3 the fold more competitor for 50% inhibition than HuCC49 was 4 to 15 fold.

molecular target: anti-CC49 variable region (anti-idiotypic) antibodies in the serum of patient two; test: HPLC size exclusion; ^125I-HuCC49 + patient serum, no competitor

For B5, the percent of complexes was 32.2%.

molecular target: anti-CC49 variable region (anti-idiotypic) antibodies in the serum of patient one; test: as above

B5 was tested, and the percent of complexes was 46.2%.

molecular target: anti-CC49 variable region (anti-idiotypic) antibodies in the serum of patient six; test: as above

With B5 the percent of complexes was 33.5%.

molecular target: anti-CC49 variable region (anti-idiotypic) antibodies in the serum of patient four; test: as above

Binder B5 has a percent of complexes of 56.8%.

molecular target: anti-CC49 variable region (anti-idiotypic) antibodies in the serum of patient three; test: as above

B5 was tested, and the percent of complexes was 24.5%.

molecular target: anti-CC49 variable region (anti-idiotypic) antibodies in the serum of patient five; test: as above

For B5, the percent of complexes was 42.9%.

molecular target: anti-CC49 variable region (anti-idiotypic) antibodies in the serum of patient two; test: HPLC competition, serial dilutions of cold competitor vs ^125I-HuCC49 with serum of patient two

B5 was tested, and the amount of competitor for 25% competition was 60 ng.

molecular target: anti-CC49 variable region (anti-idiotypic) antibodies in the serum of patient two; test: HPLC size exclusion; 5 µg cold competitor + ^125I-HuCC49 + patient serum; less complex = more competition

Point of comparison: B8, percent of complexes 5.8%. Against it:
- B1 — higher, 16.9%
- B5 — lower, 1.5%
- B6 — lower, 3%
- B2 — higher, 15.7%
- B7 — higher, 33.5%
- B3 — higher, 29.7%
- B9 — higher, 6.7%

molecular target: anti-CC49 variable region (anti-idiotypic) antibodies in the serum of patient one; test: as above

Point of comparison: B2, percent of complexes 24.5%. Against it:
- B1 — lower, 12.2%
- B5 — lower, 0%
- B6 — lower, 3.4%
- B7 — higher, 48.2%
- B8 — lower, 3.9%
- B3 — higher, 32.5%
- B9 — lower, 5.1%

molecular target: anti-CC49 variable region (anti-idiotypic) antibodies in the serum of patient six; test: as above

Point of comparison: B6, percent of complexes 2.7%. Against it:
- B1 — higher, 16%
- B5 — lower, 0%
- B2 — higher, 24.6%
- B7 — higher, 34.8%
- B8 — higher, 10.2%
- B3 — higher, 32.7%
- B9 — higher, 7.3%

molecular target: anti-CC49 variable region (anti-idiotypic) antibodies in the serum of patient four; test: as above

Point of comparison: B7, percent of complexes 37.6%. Against it:
- B1 — lower, 10.1%
- B5 — lower, 0.5%
- B6 — lower, 4.4%
- B2 — lower, 19.4%
- B8 — lower, 7%
- B3 — lower, 24.7%
- B9 — lower, 8.2%

molecular target: anti-CC49 variable region (anti-idiotypic) antibodies in the serum of patient three; test: as above

Point of comparison: B5, percent of complexes 2.6%. Against it:
- B1 — higher, 9.8%
- B6 — higher, 2.7%
- B2 — higher, 12.6%
- B7 — higher, 22.4%
- B8 — higher, 3.3%
- B3 — higher, 12.7%
- B9 — higher, 3.7%

molecular target: anti-CC49 variable region (anti-idiotypic) antibodies in the serum of patient five; test: as above

Point of comparison: B5, percent of complexes 3%. Against it:
- B1 — higher, 14.3%
- B6 — lower, 2.4%
- B2 — higher, 20.2%
- B7 — higher, 46.7%
- B8 — higher, 3.5%
- B3 — higher, 36.6%
- B9 — higher, 4.6%

molecular target: anti-idiotypic antibodies to MAb CC49 in the serum of one patient (not named, Example V); test: HPLC size-exclusion competition: cold competitor vs ^125I-HuCC49 for complex formation with patient serum

B6 was tested, and the fold better competition than parental HuCC49 was 2 fold.
